Test results reported in US20050079613.

T1: GST-MmUbc6
T1 sequence (Q9JJZ4 whole entry, looked up): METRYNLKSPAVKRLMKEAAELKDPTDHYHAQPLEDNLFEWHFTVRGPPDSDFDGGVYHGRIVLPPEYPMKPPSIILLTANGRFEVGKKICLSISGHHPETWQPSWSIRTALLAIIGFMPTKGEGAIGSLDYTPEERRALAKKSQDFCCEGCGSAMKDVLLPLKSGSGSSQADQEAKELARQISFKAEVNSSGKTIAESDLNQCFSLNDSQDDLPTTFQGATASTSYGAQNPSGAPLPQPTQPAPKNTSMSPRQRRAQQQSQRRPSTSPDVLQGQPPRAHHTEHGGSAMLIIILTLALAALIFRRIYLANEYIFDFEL

T2: GST-MmUbc7, P60605
T2 chain: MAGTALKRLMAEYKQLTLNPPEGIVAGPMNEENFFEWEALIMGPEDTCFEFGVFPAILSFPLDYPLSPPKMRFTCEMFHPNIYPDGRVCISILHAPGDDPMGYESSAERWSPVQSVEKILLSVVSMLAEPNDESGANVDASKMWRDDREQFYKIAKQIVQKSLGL

T3: UbCH2, P62256
T3 chain: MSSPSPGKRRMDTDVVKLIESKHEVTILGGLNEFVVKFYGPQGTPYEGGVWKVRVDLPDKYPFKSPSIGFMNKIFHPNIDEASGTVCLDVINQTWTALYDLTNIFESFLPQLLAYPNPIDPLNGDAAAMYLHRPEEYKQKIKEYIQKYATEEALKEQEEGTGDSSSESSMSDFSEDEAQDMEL

B1: GST-ICP0-RING (amino acids 1-241 of ICP0) (protein)
chain: MEPRPGASTRRPEGRPQREPAPDVWVFPCDRDLPDSSDSEAETEVGGRGDADHHDDDSASEADSTDTELFETGLLGPQGVDGGAVSGGSPPREEDPGSCGGAPPREDGGSDEGDVCAVCTDEIAPHLRCDTFPCMHRFCIPCMKTWMQLRNTCPLCNAKLVYLIVGVTPSGSFSTIPIVNDPQTRMEAEEAVRAGTAVDFIWTGNQRFAPRYLTLGGHTVRALSPTHPEPTTDEDDDDLDD
B2: GST fusion of the MARCH-I RING-CH domain (protein)
chain: MTSSHVCCNFLNMWKKSKISTMYYLNQDAKLSNLFLQASSPTTGTAPRSQSRLSVCPSTQDICRICHCEGDEESPLITPCRCTGTLRFVHQSCLHQWIKSSDTRCCELCKYDFIMETKLKPLRKWEKLQMTTSERRK
B3: GST fusion of the MARCH-IV RING-CH domain (protein)
chain: WYCYGLCAPAPQMLRHQGLLKCRCRMLFNDLKVFLLRRPPQAPLPMHGDPQPPGLAANNTLPALGAGGWAGWRGPREVVGREPPPVPPPPPLPPSSVEDDWGGPATEPPASLLSSASSDDFCKEKTEDRYSLGSSLDSGMRTPLCRICFQGPEQGELLSPCRCDGSVKCTHQPCLIKWISERGCWSCELCYYKYHVIAISTKNPLQWQAISLTVIEKVQ

Experiments:
GST-MmUbc6 = target: T1, GST-MmUbc6
[1] = target: three human E2 enzymes UbCH2, UbCH3 and UbCH5a (at least one of these three enzymes)
GST-MmUbc7, P60605 = target: T2, GST-MmUbc7, P60605
UbCH2, P62256 = target: T3, UbCH2, P62256

Sequence of GST-UbCH5a, P51668 (P51668 whole entry, the tested form may be a part): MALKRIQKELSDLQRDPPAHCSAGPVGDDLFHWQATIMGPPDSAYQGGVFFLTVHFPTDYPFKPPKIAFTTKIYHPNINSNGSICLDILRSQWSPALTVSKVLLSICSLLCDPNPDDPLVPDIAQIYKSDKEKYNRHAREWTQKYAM

Row | Protein | formation of high-molecular weight ubiquitin complexes in vitro (anti-ubiquitin blot) (GST-MmUbc6) | formation of high-molecular weight ubiquitin complexes in vitro (anti-ubiquitin blot) (GST-UbCH5a, P51668) | formation of high-molecular weight ubiquitin complexes in vitro (anti-ubiquitin blot) [1] | formation of high-molecular weight ubiquitin complexes in vitro (anti-ubiquitin blot) (E2 enzymes tested) | promotion of ubiquitination in vitro (GST-MmUbc6) | promotion of ubiquitination in vitro (GST-MmUbc7, P60605) | formation of high-molecular weight ubiquitin complexes in vitro (anti-ubiquitin blot) (UbCH2, P62256)
1 | B1 | The ICP0-RING domain also showed some activity with the murine ER-bound E2 enzyme MmUbc6 | ICPO promoted the formation of high-molecular weight complexes in the presence of the E2 enzyme ubCH5a | – | – | – | – | –
2 | B2 | – | MARCH-I was less active with most E2 enzymes tested with the notable exception of UbCH5a | The RiNG-CH-GST fusion proteins of all four MARCH-proteins tested were able to catalyze the formation of high-molecular weight molecular ubiquitin complexes in the presence of at least one of these three enzymes | MARCH-I was less active with most E2 enzymes tested with the notable exception of UbCH5a | MARCH-I was only active with MmUbc6 | Whereas MARCH-II was able to function with both proteins, MARCH-I was only active with MmUbc6 | –
3 | B3 | – | – | The RiNG-CH-GST fusion proteins of all four MARCH-proteins tested were able to catalyze the formation of high-molecular weight molecular ubiquitin complexes in the presence of at least one of these three enzymes | – | – | – | MARCH-IV was mostly active with UbCH2
